{"source": "paper PMC9839326", "about": "(Science Advances, 2023)", "binders": {"B1": {"name": "plastocyanin (PC) from spinach (natural protein)", "chain": "VEVLLGGGDGSLAFLPGDFSVASGEEIVFKNNAGFPHNVVFDEDEIPSGVDAAKISMSEEDLLNAPGETYKVTLTEKGTYKFYCSPHQGAGMVGKVTVN"}}, "biological_target": "cytochrome f (Cyt f) of spinach Cyt b6f (spinach (Spinacia oleracea), UniProt P16013 36-320)", "sequence (P16013 36-320)": "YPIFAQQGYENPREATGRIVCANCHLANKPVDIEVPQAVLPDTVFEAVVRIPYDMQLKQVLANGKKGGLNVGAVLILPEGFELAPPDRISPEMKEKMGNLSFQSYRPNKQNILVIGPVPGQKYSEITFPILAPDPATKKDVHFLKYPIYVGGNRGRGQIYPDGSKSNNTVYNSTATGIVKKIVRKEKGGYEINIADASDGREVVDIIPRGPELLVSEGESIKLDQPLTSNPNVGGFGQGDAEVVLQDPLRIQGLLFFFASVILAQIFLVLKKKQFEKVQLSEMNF", "test": "cryo-EM structure"}
{"binder": "B1", "values": [{"measurement": "binding result", "value": "binds"}]}
